Measured values from PMC12090739.

Tests used:
PDGFRα-V242K [1] = molecular target: PDGFRα-V242K (UniProt P16234)
PDGFRα-V242K [2] = molecular target: PDGFRα-V242K (UniProt P16234); remark: listed apart in the source
[3] = molecular target: HCMV gH/gL/gO complex (strain TR; gO allele gO1b) (human cytomegalovirus (HCMV) strain TR)

Substance | rate of gH/gL/gO-PDGFRα-dependent cell–cell fusion, as percent of parental gO1b (% of parental gO1b) (PDGFRα-V242K [2]) | also measured
HCMV gH/gL/gO complex (strain TR; gO allele gO1b) |  | rate of gB-mediated cell–cell fusion (split luciferase, live cells); ARPE19 target cells with PDGFRα against those without (PDGFRα-V242K [1]): > 100 fold
HCMV gH/gL/gO complex with gO allele gO1a | 83 | 
HCMV gH/gL/gO complex with gO allele gO1c | 107 | 
HCMV gH/gL/gO complex with gO allele gO2a | 112 | 
soluble PDGFRα-FC (from UniProt P16234 24-528) (Fc fusion) |  | inhibition of the rate of gH/gL/gO-PDGFRα-dependent cell–cell fusion (pair that is blocked: m1 and m2) [3]: 2.5 fold
